This note sets out measurements from publication doi:10.1101/816264.

The test addresses mouse ASIC1a wild type (mouse) (UniProt Q6NXK8).
Sequence of UniProt Q6NXK8 (Q6NXK8 whole entry): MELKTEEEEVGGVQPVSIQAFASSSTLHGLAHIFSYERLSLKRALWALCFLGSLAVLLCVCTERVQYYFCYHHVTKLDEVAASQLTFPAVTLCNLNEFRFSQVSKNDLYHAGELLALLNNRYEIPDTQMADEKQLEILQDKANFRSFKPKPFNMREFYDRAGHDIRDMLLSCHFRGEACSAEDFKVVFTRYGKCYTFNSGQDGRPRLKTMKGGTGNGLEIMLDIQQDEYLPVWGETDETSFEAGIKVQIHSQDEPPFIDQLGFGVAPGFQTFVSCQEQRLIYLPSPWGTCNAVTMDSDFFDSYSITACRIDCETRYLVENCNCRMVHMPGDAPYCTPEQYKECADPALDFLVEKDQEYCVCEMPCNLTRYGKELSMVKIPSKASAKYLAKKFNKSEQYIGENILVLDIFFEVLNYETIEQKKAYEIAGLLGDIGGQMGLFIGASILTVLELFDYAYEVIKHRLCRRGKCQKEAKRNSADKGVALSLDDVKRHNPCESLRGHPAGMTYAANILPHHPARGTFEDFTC

In turn, BigDyn Arg9Ala (peptide) had a fold increase of the EC50 of current rescue against BigDyn (TEVC) above 50 fold.
